B1: mRNA-splicing (parent)
chain: AGUUGCUGCUGGGAGCUCCAGCACAGUGAAAUGGACAGAAGGGCAGAGCAA

Variants of: B1
Experiment: exon inclusion enrichment index; higher = more inclusion; WT1 exon 5 minigene, HEK293

Compared with C6A U7C C9A U10C G41A G42A, C6A U7C C9A U10C G41A G42U is higher in “exon inclusion enrichment index” value: 2.59 for the first, 2.71 for the second.

Compared with C6A U7C C9A U10C G41A G42C, C6A U7C C9A U10C U32C G33C is higher in “exon inclusion enrichment index” value: 3.64 for the first, 4 for the second.

Going from C6A U7C C9A U10C U32C G33U to C6A U7C C9A U10C U32C G33A, the “exon inclusion enrichment index” value falls from 2.94 to 2.3.

Compared with C6A U7C C9A U10C G43C C44A, C6A U7C C9A U10C G43C C44U is lower in “exon inclusion enrichment index” value: 3.8 for the first, 2.49 for the second.

First: C6A U7C C9A U10C G43C C44G
Second: C6A U7C C9A U10C A47G G48A
The “exon inclusion enrichment index” value of the first is higher: 4.77 for the first, 2.43 for the second.

Going from C6A U7C C9A U10C A47G G48U to C6A U7C C9A U10C A47G G48C, the “exon inclusion enrichment index” value rises from 0.925 to 1.71.

Going from C6A U7C C9A U10C G38C to C6A U7C C9A U10C G38A, the “exon inclusion enrichment index” value rises from 2.15 to 2.2.

First: C6A U7C C9A U10C G38U
Second: C6A U7C C9A U10C G13A A14G
The “exon inclusion enrichment index” value of the first is lower: 1.44 for the first, 3 for the second.

Going from C6A U7C C9A U10C G13A A14U to C6A U7C C9A U10C G13A A14C, the “exon inclusion enrichment index” value rises from 3.22 to 3.39.

Going from C6A U7C C9A U10C G38C A39U to C6A U7C C9A U10C G38C A39C, the “exon inclusion enrichment index” value rises from 0.489 to 3.

Going from C6A U7C C9A U10C G38C A39G to C6A U7C C9A U10C G11A, the “exon inclusion enrichment index” value falls from 2.65 to 1.84.

First: C6A U7C C9A U10C G11C
Second: C6A U7C C9A U10C G11U
The “exon inclusion enrichment index” value of the first is higher: 3.61 for the first, 3.07 for the second.

Compared with C6A U7C C9A U10C C18A, C6A U7C C9A U10C C18G is higher in “exon inclusion enrichment index” value: 2.64 for the first, 3.06 for the second.

First: C6A U7C C9A U10C C18U
Second: C6A U7C C9A U10C G11U G12U
The “exon inclusion enrichment index” value of the first is higher: 2.7 for the first, 1.57 for the second.

First: C6A U7C C9A U10C G11U G12C
Second: C6A U7C C9A U10C G11U G12A
The “exon inclusion enrichment index” value of the first is higher: 1.94 for the first, 1.25 for the second.

Compared with C6A U7C C9A U10C U32A G33U, C6A U7C C9A U10C U32A G33C is higher in “exon inclusion enrichment index” value: 3.1 for the first, 3.5 for the second.

First: C6A U7C C9A U10C U32A G33A
Second: C6A U7C C9A U10C U17C
The “exon inclusion enrichment index” value of the first is lower: 2.07 for the first, 3.11 for the second.

Compared with C6A U7C C9A U10C U17G, C6A U7C C9A U10C U17A is higher in “exon inclusion enrichment index” value: 2.68 for the first, 3.36 for the second.

First: C6A U7C C9A U10C A40C G41U
Second: C6A U7C C9A U10C A40C G41C
The “exon inclusion enrichment index” value of the first is lower: 1.87 for the first, 3.56 for the second.

Going from C6A U7C C9A U10C A40C G41A to C6A U7C C9A U10C G12C G13C, the “exon inclusion enrichment index” value falls from 1.84 to 1.72.

Going from C6A U7C C9A U10C G12C G13A to C6A U7C C9A U10C G12C G13U, the “exon inclusion enrichment index” value falls from 2.55 to 0.77.

First: C6A U7C C9A U10C C19A A20U
Second: C6A U7C C9A U10C C19A A20C
The “exon inclusion enrichment index” value of the first is lower: 2.07 for the first, 2.73 for the second.

Going from C6A U7C C9A U10C C19A A20G to C6A U7C C9A U10C C36A, the “exon inclusion enrichment index” value rises from 0.968 to 2.48.

Going from C6A U7C C9A U10C C36U to C6A U7C C9A U10C C36G, the “exon inclusion enrichment index” value rises from 1.34 to 2.75.

First: C6A U7C C9A U10C C24U A25U
Second: C6A U7C C9A U10C C24U A25G
The “exon inclusion enrichment index” value of the first is lower: 2.88 for the first, 3.92 for the second.

First: C6A U7C C9A U10C C24U A25C
Second: C6A U7C C9A U10C A45U G46A
The “exon inclusion enrichment index” value of the first is higher: 4.21 for the first, 2.51 for the second.

Compared with C6A U7C C9A U10C A45U G46C, C6A U7C C9A U10C A45U G46U is lower in “exon inclusion enrichment index” value: 2.51 for the first, 1.75 for the second.

Compared with C6A U7C C9A U10C G34U A35U, C6A U7C C9A U10C G34U A35C is higher in “exon inclusion enrichment index” value: 1.33 for the first, 1.5 for the second.

Going from C6A U7C C9A U10C G34U A35G to C6A U7C C9A U10C C36G A37U, the “exon inclusion enrichment index” value rises from 1.29 to 1.89.

Going from C6A U7C C9A U10C C36G A37G to C6A U7C C9A U10C C36G A37C, the “exon inclusion enrichment index” value rises from 1.36 to 1.56.

First: C6A U7C C9A U10C G15A C16A
Second: C6A U7C C9A U10C G15A C16U
The “exon inclusion enrichment index” value of the first is lower: 2.34 for the first, 2.88 for the second.

First: C6A U7C C9A U10C G15A C16G
Second: C6A U7C C9A U10C U27A G28U
The “exon inclusion enrichment index” value of the first is higher: 2.11 for the first, 2.04 for the second.

Going from C6A U7C C9A U10C U27A G28A to C6A U7C C9A U10C U27A G28C, the “exon inclusion enrichment index” value rises from 2.98 to 3.18.

First: C6A U7C C9A U10C U27C G28A
Second: C6A U7C C9A U10C U27C G28C
The “exon inclusion enrichment index” value of the first is lower: 3.15 for the first, 3.85 for the second.

First: C6A U7C C9A U10C U27C G28U
Second: C6A U7C C9A U10C G26C U27A
The “exon inclusion enrichment index” value of the first is lower: 2.92 for the first, 3.61 for the second.

First: C6A U7C C9A U10C G26C U27C
Second: C6A U7C C9A U10C G26C U27G
The “exon inclusion enrichment index” value of the first is higher: 4.37 for the first, 3.92 for the second.

First: C6A U7C C9A U10C G15C C16G
Second: C6A U7C C9A U10C G15C C16U
The “exon inclusion enrichment index” value of the first is higher: 3.44 for the first, 3.32 for the second.

Going from C6A U7C C9A U10C G15C C16A to C6A U7C C9A U10C G42U G43C, the “exon inclusion enrichment index” value falls from 2.79 to 2.05.

Compared with C6A U7C C9A U10C G42U G43U, C6A U7C C9A U10C G42U G43A is higher in “exon inclusion enrichment index” value: 3.65 for the first, 3.84 for the second.

First: C6A U7C C9A U10C G43U
Second: C6A U7C C9A U10C G43C
The “exon inclusion enrichment index” value of the first is lower: 2.81 for the first, 3.07 for the second.

First: C6A U7C C9A U10C G43A
Second: C6A U7C C9A U10C C18U C19A
The “exon inclusion enrichment index” value of the first is higher: 4.63 for the first, 0.757 for the second.

Compared with C6A U7C C9A U10C C18U C19U, C6A U7C C9A U10C C18U C19G is higher in “exon inclusion enrichment index” value: 0.145 for the first, 1.93 for the second.

— the RNAGym collection of RNA variant scans (doi:10.1101/gr.219683.116)
